Consider 1 substance from article PMC3759449.

The target of assay [1] is NrCAM, rat (pcDNA3 plasmid) (rat) (UniProt P97686).
Assay [2] concerns the target NrCAM, rat, tyrosine-phosphorylated in the FIGQY motif by co-expressed EphB2 (rat) (UniProt P97686).

Turning to “ankyrinG-EGFP fusion protein (from UniProt O70511 1-2622) (natural protein)”, the percent of cells with ankyrinG-EGFP recruited to the plasma membrane, HEK293 cells co-expressing ankyrin/NrCAM/EphB2 KD (kinase dead mutant K662R) in assay [1] stood at 84%. The percent of cells with ankyrinG-EGFP recruited to the plasma membrane, HEK293 cells co-expressing ankyrin/NrCAM/EphB2 in assay [2] stood at 7%.
